Test results reported in patent US20240117030A1 (Pfizer, published 2024).
Read-outs that look alike come from different tables or passages of the source. Values belong to the binder of their own block, whether it stands above or below them.

Columns and labels:
Assay in all cases: cell-based or functional assay
[1] = molecular target: T1, human IL-4 (human, UniProt P05112 25-153)
T1 sequence (looked up): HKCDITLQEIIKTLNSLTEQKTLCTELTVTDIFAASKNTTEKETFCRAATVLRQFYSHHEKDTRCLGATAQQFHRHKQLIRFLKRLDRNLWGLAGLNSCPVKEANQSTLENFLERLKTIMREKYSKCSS

[2] = molecular target: T1, human IL-4; remark: listed apart in the source
[3] = molecular target: human IL-13 (human, UniProt P35225 35-146)
Sequence of human IL-13 (P35225 35-146 limits assumed, form in doubt): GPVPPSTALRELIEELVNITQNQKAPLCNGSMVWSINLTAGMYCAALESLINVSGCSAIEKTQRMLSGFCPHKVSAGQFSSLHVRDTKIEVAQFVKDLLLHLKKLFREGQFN

[4] = molecular target: T2, recombinant human IL-33 (R&D Systems 3625-IL), reduced with DTT (human, UniProt O95760 112-270, limits assumed)
T2 sequence (looked up): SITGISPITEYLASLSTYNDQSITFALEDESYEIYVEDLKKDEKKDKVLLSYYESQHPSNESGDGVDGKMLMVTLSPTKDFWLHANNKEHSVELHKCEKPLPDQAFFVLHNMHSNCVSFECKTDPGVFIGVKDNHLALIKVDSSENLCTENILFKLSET

B1: IL4-1347 (antibody, human IgG1, kappa, V domains shown)
VH: QVTLRESGPALVKPTQTLTLTCTFSGFSLSTSGMGVSWIRQPPGKGLEWLAHIYWDDDKRYNPSLKSRLTISKDTSRNQVVLTMTNMDPVDTATYYCARRETVFYWYFDVWGRGTPVTVSS
VL: DIQMTQSPSSLSASVGDRVTITCKASQSVDEDGDSYMNWYQQKPGKAPKLLIYAASNLESGVPSRFSGSGSGTDFTLTISSLQPEDFATYYCQQSNEDPPTFGGGTKVEIKR
CD23: Fold bioactivity relative to IL4-1285 [1]: 1.5 fold | CD23 IC50 [pM] [1]: 65.2 pM

B3: IL4-1352 (antibody, IgG1, V domains shown)
VH: QVTLRESGPALVKPTQTLTLTCTFSGFSLSNWGMGVSWIRQPPGKGLEWLAHIYWDDDKRYNPSLKSRLTISKDTSRNQVVLTMTNMDPVDTATYYCARRETVFYWYFDVWGRGTPVTVSS
VL: DIQMTQSPSSLSASVGDRVTITCKASQSVDEDGDSYMNWYQQKPGKAPKLLIYAASNLESGVPSRFSGSGSGTDFTLTISSLQPEDFATYYCQQSNEDPPTFGGGTKVEIK
CD23: Fold bioactivity relative to IL4-1285 [1]: 4.9 fold | CD23 IC50 [pM] [1]: 19.6 pM

B6: IL4-0002 (antibody, human IgG1, kappa)
heavy: EVTLRESGPALVKPTQTLTLTCTFSGFSLSNFGEGLSWIRQPPGKGLEWLAHIYWDDDKRYNPSLKSRLTISKDTSRNQVVLTMTNMDPVDTATYYCARRETVFYWYFDVWGQGTTVTVSSASTKGPSVFPLAPSSKSTSGGTAALGCLVKDYFPEPVTVSWNSGALTSGVHTFPAVLQSSGLYSLSSVVTVPSSSLGTQTYICNVNHKPSNTKVDKKVEPKSCDKTHTCPPCPAPEAAGAPSVFLFPPKPKDTLMISRTPEVTCVVVDVSHEDPEVKFNWYVDGVEVHNAKTKPREEQYNSTYRVVSVLTVLHQDWLNGKEYKCKVSNKALPAPIEKTISKAKGQPREPQVYTLPPSREEMTKNQVSLTCLVKGFYPSDIAVEWESNGQPENNYKTTPPVLDSDGSFFLYSKLTVDKSRWQQGNVFSCSVMHEALHNHYTQKSLSLSPGK
light: DIQMTQSPSSLSASVGDRVTITCKASQSVDEDGDSYMNWYQQKPGKAPKLLIYAASNLESGVPSRFSGSGSGTDFTLTISSLQPEDFATYYCQQSNEDPPTFGGGTKVEIKRTVAAPSVFIFPPSDEQLKSGTASVVCLLNNFYPREAKVQWKVDNALQSGNSQESVTEQDSKDSTYSLSSTLTLSKADYEKHKVYACEVTHQGLSSPVTKSFNRGEC
CD23: Fold bioactivity relative to IL4-0002 [2]: 1 fold | CD23 IC50 [pM] [2]: 2.1 pM

B8: IL4-0157 (antibody, IgG1, V domains shown)
VH: EVTLRESGPALVKPTQTLTLTCTFSGFSLSNFGEGLSWIRQPPGKGLEWLAHIYWDDDKRYSTSLKTRLTISKDTSRNQVVLTMTNMDPVDTATYYCARRETVFYWYFDVWGQGTTVTVSS
VL: DIQMTQSPSSLSASVGDRVTITCRASQSVDEEGDSYMNWYQQKPGKAPKLLIYAASNLESGVPSRFSGSGSGTDFTLTISSLQPEDFATYYCQQSHKDPPTFGGGTKVEIK
CD23: Fold bioactivity relative to IL4-0002 [2]: 0.2 fold | CD23 IC50 [pM] [2]: 9.3 pM

B9: IL4-0749 (antibody, human IgG1, kappa, V domains shown)
VH: EVTLRESGPALVKPTQTLTLTCTFSGFSLSNFGEGLSWIRQPPGKGLEWLAHIYWDDDKRYNPSLKSRLTISKDTSRNQVVLTMTNMDPVDTATYYCARRETVFYWYFDVWGQGTTVTVSS
VL: DIQMTQSPSSLSASVGDRVTITCRASQSVDEEGDSYMNWYQQKPGKAPKLLIYAASNLESGVPSRFSGSGSGTDFTLTISSLQPEDFATYYCQQSNEDPPTFGGGTKVEIKR
CD23: Fold bioactivity relative to IL4-0002 [2]: 0.9 fold | CD23 IC50 [pM] [2]: 2.4 pM

B10: IL4-1040 (antibody, human IgG1, kappa, V domains shown)
VH: EVTLRESGPALVKPTQTLTLTCTFSGFSLSNFGEGLSWIRQPPGKGLEWLAHIYWDDDKRYNPSLKSRLTISKDTSRNQVVLTMTNMDPVDTATYYCARRETVFYWYFDVWGQGTTVTVSS
VL: DIQMTQSPSSLSASVGDRVTITCRASQSVDEEGDSYMNWYQQKPGKAPKLLIYAASNLESGVPSRFSGSGSGTDFTLTISSLQPEDFATYYCQQSNKDPPTFGGGTKVEIKR
CD23: Fold bioactivity relative to IL4-0002 [2]: 0.7 fold | CD23 IC50 [pM] [2]: 3.2 pM

B12: IL13-1338 (antibody, IgG1, V domains shown)
VH: EVQLVESGGGLVQPGGSLRLSCAASGFTFSSYAMSWVRQAPGKGLEWVASISSGDTTYYPDSVKGRFTISRDNAKNSLYLQMNSLRAEDTAVYYCARNEGYYFGLTLWGQGTLVTVSS
VL: DIQMTQSPSSLSASVGDRVTITCKASESVDHSGSSLMHWYQQKPGKAPKLLIYRASNLESGVPSRFSGSGSGTDFTLTISSLQPEDFATYYCQQSNEDPWTFGGGTKVEIK
CD23: Fold bioactivity relative to IL13-0001 [3]: 0.9 fold | CD23: Fold bioactivity relative to IL13-1307 [3]: 26.5 fold | CD23 IC50 [pM] [3]: 11.5 pM | pSTAT6: Fold bioactivity relative to IL13-0001 [3]: 1.1 fold | pSTAT6: Fold bioactivity relative to IL13-1307 [3]: 1.6 fold | pSTAT6 IC50 [pM] [3]: 87 pM

B14: IL33-0701 (antibody, IgG1, V domains shown)
VH: EVQLVESGGGLVQPGGSLRLSCAASGFTFSSYWMYWVRQAPGKGLEWVAAITPNKGVDYYPESVKGRFTISRDNAKNSLYLQMNSLRAEDTAVYYCARGHYYYTSYSLGYWGQGTLVTVSS
VL: DIQMTQSPSSLSASVGDRVTITCRASQPISKHLDWYQQKPGKAPKLLIYFTNNLQTGVPSRFSGSGSGTDFTLTISSLQPEDFATYYCFQYKQGWTFGGGTKVEIK
IC50 [nM] versus reduced human IL-33 (R&D), IC50 (AVE) [4]: 0.013 nM

B15: IL33-0710 (antibody, IgG1, V domains shown)
VH: EVQLVESGGGLVQPGGSLRLSCAASGFTFSSYWMYWVRQAPGKGLEWVAAITPNAHAGYYPESVKGRFTISRDNAKNSLYLQMNSLRAEDTAVYYCARGHYYYTSYSLGYWGQGTLVTVSS
VL: DIQMTQSPSSLSASVGDRVTITCRASQPISKHLDWYQQKPGKAPKLLIYFTKNLVTGVPSRFSGSGSGTDFTLTISSLQPEDFATYYCFQYNQGWTFGGGTKVEIK
IC50 [nM] versus reduced human IL-33 (R&D), IC50 (AVE) [4]: 0.013 nM

B16: IL33-0711 (antibody, IgG1, V domains shown)
VH: EVQLVESGGGLVQPGGSLRLSCAASGFTFSSYWMYWVRQAPGKGLEWVAAITPNAHAGYYPESVKGRFTISRDNAKNSLYLQMNSLRAEDTAVYYCARGHYYYTSYSLGYWGQGTLVTVSS
VL: DIQMTQSPSSLSASVGDRVTITCRASQPISKHLDWYQQKPGKAPKLLIYFTKNLKTGVPSRFSGSGSGTDFTLTISSLQPEDFATYYCFQYNQGWTFGGGTKVEIK
IC50 [nM] versus reduced human IL-33 (R&D), IC50 (AVE) [4]: 0.007 nM

More lines, now with the values ahead:

CD23: Fold bioactivity relative to IL4-1285 [1]: 5.4 fold | CD23 IC50 [pM] [1]: 17.9 pM
B2: IL4-1350 (antibody, IgG1, V domains shown)
VH: QVTLRESGPALVKPTQTLTLTCTFSGFSLSTWGSGVSWIRQPPGKGLEWLAHIYWDDDKRYNPSLKSRLTISKDTSRNQVVLTMTNMDPVDTATYYCARRETVFYWYFDVWGRGTPVTVSS
VL: DIQMTQSPSSLSASVGDRVTITCKASQSVDEDGDSYMNWYQQKPGKAPKLLIYAASNLESGVPSRFSGSGSGTDFTLTISSLQPEDFATYYCQQSNEDPPTFGGGTKVEIK

CD23: Fold bioactivity relative to IL4-1285 [1]: 2.1 fold | CD23 IC50 [pM] [1]: 44.9 pM
B4: IL4-1356 (antibody, IgG1, V domains shown)
VH: QVTLRESGPALVKPTQTLTLTCTFSGFSLLTFGSGVSWIRQPPGKGLEWLAHIYWDDDKRYNPSLKSRLTISKDTSRNQVVLTMTNMDPVDTATYYCARRETVFYWYFDVWGRGTPVTVSS
VL: DIQMTQSPSSLSASVGDRVTITCKASQSVDEDGDSYMNWYQQKPGKAPKLLIYAASNLESGVPSRFSGSGSGTDFTLTISSLQPEDFATYYCQQSNEDPPTFGGGTKVEIK

CD23: Fold bioactivity relative to IL4-1285 [1]: 5.7 fold | CD23 IC50 [pM] [1]: 16.8 pM
B5: IL4-1358 (antibody, IgG1, V domains shown)
VH: QVTLRESGPALVKPTQTLTLTCTFSGFSLSTWGEGVSWIRQPPGKGLEWLAHIYWDDDKRYNPSLKSRLTISKDTSRNQVVLTMTNMDPVDTATYYCARRETVFYWYFDVWGRGTPVTVSS
VL: DIQMTQSPSSLSASVGDRVTITCKASQSVDEDGDSYMNWYQQKPGKAPKLLIYAASNLESGVPSRFSGSGSGTDFTLTISSLQPEDFATYYCQQSNEDPPTFGGGTKVEIK

CD23: Fold bioactivity relative to IL4-0002 [2]: 1.3 fold | CD23 IC50 [pM] [2]: 1.6 pM
B7: IL4-0037 (antibody, IgG1, V domains shown)
VH: EVTLRESGPALVKPTQTLTLTCTFSGFSLSNFGEGLSWIRQPPGKGLEWLAHIYWDDDKRYSTSLKTRLTISKDTSRNQVVLTMTNMDPVDTATYYCARRETVFYWYFDVWGQGTTVTVSS
VL: DIQMTQSPSSLSASVGDRVTITCKASQSVDEDGDSYMNWYQQKPGKAPKLLIYAASNLESGVPSRFSGSGSGTDFTLTISSLQPEDFATYYCQQSNEDPPTFGGGTKVEIK

CD23: Fold bioactivity relative to IL13-0001 [3]: 0.7 fold | CD23: Fold bioactivity relative to IL13-1307 [3]: 21.3 fold | CD23 IC50 [pM] [3]: 14.4 pM | pSTAT6: Fold bioactivity relative to IL13-0001 [3]: 2.2 fold | pSTAT6: Fold bioactivity relative to IL13-1307 [3]: 3.3 fold | pSTAT6 IC50 [pM] [3]: 42.7 pM
B11: IL13-1308 (antibody, IgG1, V domains shown)
VH: EVQLVESGGGLVQPGGSLRLSCAASGFTFSSYAMSWVRQAPGKGLEWVASISSGDTTYYPDSVKGRFTISRDNAKNSLYLQMNSLRAEDTAVYYCARLDGYYFGFPYWGQGTLVTVSS
VL: DIQMTQSPSSLSASVGDRVTITCKASESVDHFGWSLVHWYQQKPGKAPKLLIYRASNLESGVPSRFSGSGSGTDFTLTISSLQPEDFATYYCQQSNEDPWTFGGGTKVEIKR

IC50 [nM] versus reduced human IL-33 (R&D), IC50 (AVE) [4]: 0.014 nM
B13: IL33-0698 (antibody, IgG1, V domains shown)
VH: EVQLVESGGGLVQPGGSLRLSCAASGFTFSSYWMYWVRQAPGKGLEWVAAITPNAHAGYYPESVKGRFTISRDNAKNSLYLQMNSLRAEDTAVYYCARGHYYYTSYSLGYWGQGTLVTVSS
VL: DIQMTQSPSSLSASVGDRVTITCRASQPISKHLDWYQQKPGKAPKLLIYFTNNLQTGVPSRFSGSGSGTDFTLTISSLQPEDFATYYCFQYKQGWTFGGGTKVEIK

IC50 [nM] versus reduced human IL-33 (R&D), IC50 (AVE) [4]: 0.01 nM
B17: IL33-0712 (antibody, IgG1, V domains shown)
VH: EVQLVESGGGLVQPGGSLRLSCAASGFTFSSYWMYWVRQAPGKGLEWVAAITPNAHAGYYPESVKGRFTISRDNAKNSLYLQMNSLRAEDTAVYYCARGHYYYTSYSLGYWGQGTLVTVSS
VL: DIQMTQSPSSLSASVGDRVTITCRASQPISKHLDWYQQKPGKAPKLLIYFTKNLQSGVPSRFSGSGSGTDFTLTISSLQPEDFATYYCFQYNQGWTFGGGTKVEIK
